B1: full-length tepsin-GST (residues 1-525) (natural protein)
chain: MAAAPPLRDRLSFLHRLPILLKGTSDDDVPCPGYLFEEIAKISHESPGSSQCLLEYLLSRLHSSSGHGKLKVLKILLYLCSHGSSFFLLILKRNSAFIQEAAAFAGPPDPLHGNSLYQKVRAAAQDLGSTLFSDTVLPLAPSQPLGTPPATGMGSQARPHSTLQGFGYSKEHGRTAVRHQPGQAGGGWDELDSGPSSQNSSQNSDLSRVSDSGSHSGSDSHSGASREPGDLAERVEVVALSDCQQELSLVRTVTRGPRAFLSREEAQHFIKACGLLNCEAVLQLLTCHLRGTSECTQLRALCAIASLGSSDLLPQEHILLRTRPWLQELSMGSPGPVTNKATKILRHFEASCGQLSPARGTSAEPGPTAALPGPSDLLTDAVPLPGSQVFLQPLSSTPVSSRSPAPSSGMPSSPVPTPPPDASPIPAPGDPSEAEARLAESRRWRPERIPGGTDSPKRGPSSCAWSRDSLFAGMELVACPRLVGAGAAAGESCPDAPRAPQTSSQRTAAKEPPGSEPSAFAFLNA
B2: AP-4 β4 appendage domain (residues 615-739) (domain or fragment, UniProt Q9Y6B7 615-739, looked up)
chain: SGALMLVPNRQLTADYFEKTWLSLKVAHQQVLPWRGEFHPDTLQMALQVVNIQTIAMSRAGSRPWKAYLSAQDDTGCLFLTELLLEPGNSEMQISVKQNEARTETLNSFISVLETVIGTIEEIKS
B3: tepsin LIR motif peptide (residues 185-193) (peptide)
peptide: SGGGWDELDS

Key:
[1] = biological target: T1, His6x-LC3B (residues 1-120) (UniProt Q9GZQ8 1-120); experiment: pull-down
[2] = biological target: B1; experiment: pull-down
[3] = biological target: T1, His6x-LC3B (residues 1-120); experiment: ITC

B1
binding result [1]: binds

B2
binding result [2]: binds

B3
Kd [3]: 44.4 µM
